Consider two molecules from patent publication US20030181369A1 (published 2003).

The target of the assay is T1, T7-epitope tagged bovine β1 integrin (bovine, UniProt P53712 21-798).
T1 construct: mature; Expressed in HEK293 cells and detected in lysates with anti-T7 antibody; also called T7-β1 integrin; T7 tagged β1; not shown: le
The experiment in a line: co-immunoprecipitation with anti-HSV antibody, anti-T7 Western blot (FIG. 5B panel c). On the procedure: 16K derivatives were cotransfected with T7 tagged β1 integrin into HEK293 cells. Integrin expression was assessed by Western blot analysis of RIPA lysates probed with anti-T7 antibody (panel a), and glycosylation by GlcNAc-TV was assessed by incubating extracts with agarose-conjugated L-PHA and analysing recovered proteins with anti-T7 antibody (panel b). Proteins interacting with 16K or 16K mutants were isolated by immunoprecipitation using anti-HSV antibody followed by agarose conjugated protein A, and recovery of T7-β1 integrin monitored by Western blot analysis using anti-T7 antibody (panel c).
RIPA lysates made from HEK293 cells transiently transfected with pXJ41-T7-β1 were resolved on 8% SDS-PAGE, transferred to nitrocellulose, and probed with anti-T7 antibody. Alternatively, lysates were treated with endoglycosidase H (2 units) or glycopeptidase F and incubated at 37° C. overnight in the manufacturer's (Calbiochem) recommended buffers. Agarose conjugated L-PHA and ConA were used to isolate β1-6 branched and high mannose forms of β1 integrin respectively. Lysates made from cells co-transfected with HSV tagged 16K were treated with anti-HSV antibody and agarose-conjugated protein A and recovered complexes were analysed by Western blot as above. […]
(A western blot detects proteins with antibodies after separation by electrophoresis.)

T1 sequence (P53712 21-798): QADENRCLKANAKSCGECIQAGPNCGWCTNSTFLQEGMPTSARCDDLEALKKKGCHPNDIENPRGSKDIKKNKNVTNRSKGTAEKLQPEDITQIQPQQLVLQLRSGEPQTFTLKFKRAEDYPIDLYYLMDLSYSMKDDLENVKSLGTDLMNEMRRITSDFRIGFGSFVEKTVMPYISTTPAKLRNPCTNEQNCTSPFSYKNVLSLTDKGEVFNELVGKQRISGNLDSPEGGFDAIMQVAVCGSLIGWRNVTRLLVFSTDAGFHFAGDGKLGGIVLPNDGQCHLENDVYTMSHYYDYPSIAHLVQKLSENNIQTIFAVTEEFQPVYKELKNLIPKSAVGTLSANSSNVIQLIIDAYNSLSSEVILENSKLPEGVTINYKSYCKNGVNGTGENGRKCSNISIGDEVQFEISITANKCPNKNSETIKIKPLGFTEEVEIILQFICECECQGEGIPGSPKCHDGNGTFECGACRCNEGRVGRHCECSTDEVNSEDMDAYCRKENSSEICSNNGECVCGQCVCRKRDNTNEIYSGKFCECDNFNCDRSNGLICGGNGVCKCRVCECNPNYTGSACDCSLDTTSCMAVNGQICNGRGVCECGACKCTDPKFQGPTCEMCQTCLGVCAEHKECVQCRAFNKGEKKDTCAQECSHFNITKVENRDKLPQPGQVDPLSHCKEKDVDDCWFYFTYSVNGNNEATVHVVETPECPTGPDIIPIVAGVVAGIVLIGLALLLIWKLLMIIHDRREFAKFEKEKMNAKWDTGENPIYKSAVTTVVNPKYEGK

B1: HSV-tagged 16K derivative α2 (helix 2, amino acids 35-88) (other, not shown: small tags and cut ends)
chain: AKSGTGIAAMSVMRPEQIMKSIIPVVMAGIIAIYGLVVAVLIANSLNDDISLYK
Take B1: the binding result is listed as “no binding”.

B2: HSV-tagged 16K derivative α4 (helix 4, amino acids 111-156) (other, not shown: small tags and cut ends)
chain: GIVGDAGVRGTAQQPRLFVGMILILIFAEVLGLYGLIVALILSTK
For the molecule B2, the binding result is recorded as “no binding”.
